Data taken from publication PMC4996978, “A MUB E2 structure reveals E1 selectivity between cognate ubiquitin E2s in eukaryotes” (Nature Communications, 2016).
Where a chain is given by its changes, count along the chain named. Numbers in names are those of the source. Each block holds one binder with its values, some of them ahead of it.

Key:
GST-AtUBC8 = target: T1, GST-AtUBC8 (Arabidopsis thaliana, UniProt P35131 1-148); assay: pull-down; GST-AtUBC8 immobilized on GSH resin; equimolar His-tagged AtMUB3, AtMUB3 mutants and Ub incubated separately for 15 min; washed three times with sonication buffer (50 mM Tris-HCl pH 7.5, 300 mM NaCl, 10% glycerol, 10 mM imidazole); immunoblot; conditions: both partners purified
T1 construct: Arabidopsis thaliana ubiquitin-conjugating enzyme E2 8 (AtUBC8); also called GST-tagged AtUBC8; source: E. coli Rosetta 2 (DE3) pLacI, soluble extract fraction immobilized on GSH resin and washed
T1 sequence (P35131 whole entry): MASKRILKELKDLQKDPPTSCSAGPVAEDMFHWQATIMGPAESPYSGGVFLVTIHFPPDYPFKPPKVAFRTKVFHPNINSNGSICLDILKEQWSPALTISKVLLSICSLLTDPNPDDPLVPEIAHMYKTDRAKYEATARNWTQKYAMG

biotinylated E2 (Ube2D3) = target: T2, biotinylated E2 (Ube2D3) (human, UniProt P61077 1-147, biotin); assay: inhibition of E2 activation (HTRF-FRET E2∼Ub formation assay); 1 nM E1 (HsUBE1), 10 μM Mg-ATP, 50 nM Ub-fluorescein, 0.9 nM streptavidin-terbium, 5 nM biotinylated Ube2D3; 50 mM Tris-HCl pH 7.5, 5 mM MgCl2, 0.05% CHAPS; HsMUB pre-incubated with E2 for 15 min; initial velocity against HsMUB concentration fit to a one-site binding model; IC50 equivalent to Ki; conditions: both partners purified
T2 construct: human ubiquitin-conjugating enzyme E2 D3 (Ube2D3), biotinylated, labelled with streptavidin-terbium in the assay; source: reagents adapted from the E1/E2 Lite kit (LifeSensors, Malvern, PA)
T2 sequence (P61077 whole entry): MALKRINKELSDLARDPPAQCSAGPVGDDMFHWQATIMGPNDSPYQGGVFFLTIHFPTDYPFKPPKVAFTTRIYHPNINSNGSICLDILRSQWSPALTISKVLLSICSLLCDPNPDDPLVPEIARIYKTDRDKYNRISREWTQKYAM

- binding result (GST-AtUBC8): binds
B1: AtMUB3-His (natural protein, Arabidopsis thaliana, UniProt Q9SW27 1-118, looked up)
chain: MPEEESIDIKFRLYDGSDIGPFRYSAASTVDFLKQRVVSDWPKGKTVVPKGINEVKLISSGKILENNKTVGQCKTPFGDIAGGVIVMHVVVQPSLAKSKTEKKVDKAPKAVICTCTIL
notes: coding region cloned without stop codon into pET28b; also called His-tagged AtMUB3; not shown: His6, C-terminal, kept

- binding result (GST-AtUBC8): binds
B2: AtMUB3 P76A F77A G78A D79A I80A (All A) (natural protein, Arabidopsis thaliana)
chain: B1 chain with P76A, F77A, G78A, D79A, I80A
notes: Generated by bridging-PCR and cloned into pET28b; also called AtMUB3 All A LBL mutant; AtMUB3 with the core LBL residues ProPheGlyAspIle all converted to alanines

- Ki (biotinylated E2 (Ube2D3)): 220 ± 16 nM
B3: HsMUB (natural protein, human, UniProt O95164 1-117, looked up)
chain: MSSNVPADMINLRLILVSGKTKEFLFSPNDSASDIAKHVYDNWPMDWEEEQVSSPNILRLIYQGRFLHGNVTLGALKLPFGKTTVMHLVARETLPEPNSQGQRNREKTGESNCCVIL
notes: Homo sapiens membrane-anchored ubiquitin-fold protein (HsMUB); coding region cloned without stop codon into pET28b; also called human homologue of MUB; source: E. coli Rosetta 2 (DE3) pLacI, purified
